Experimental data as given in the supplement of paper PMC9170038.

System: MS2 coat protein
Experiment: apparent KD of MS2 coat protein; designed switch direction (-1 OFF switch, 1 ON switch): -1; higher = weaker reporter binding
Outline: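 SNAP-549-labelled MS2 coat protein was titrated, doubling from 0.7 or 1.5 nM to 3 µM, over designed RNA switches transcribed on Illumina chips by stalled E. coli RNA polymerase. Runs were done without input, with 200 uM small-molecule ligand, or with an oligonucleotide input. Apparent KD is the per-design median over clusters of curve-fitted normalised fluorescence.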

[1] = input ligand: microRNA oligo, concentration not stated
[2] = Eterna round: R95, input ligand: microRNA oligo, concentration not stated
[3] = Eterna round: R95, input ligand: FMN 200 uM
[4] = Eterna round: R95, input ligand: none

Sequence: GUCAGCUCGUGAGGAUAUACAUCACUGCUUCGGCAGUGUAUUAAGAUCACAUGAGGAUCACCCAUGUAGAAGGCACGAGCUGAC [ENG2/2-A1] (Eterna round: R96, puzzle: Exclusion NG 2)
- apparent KD of MS2 coat protein (input ligand: FMN 200 uM): 309 nM
- apparent KD of MS2 coat protein [1]: 34 nM
- apparent KD of MS2 coat protein (input ligand: none): 29.6 nM

Sequence: GUCAGCUCGUGAGGAUAUACAUGCGUGCUUCGGCACGUAUGAUAGAUCACAUGAGGAUCACCCAUGUAGAAGGUACGAGCUGAU [ENG2/4-C2] (Eterna round: R96, puzzle: Exclusion NG 2)
- apparent KD of MS2 coat protein (input ligand: FMN 200 uM): 14.9 nM
- apparent KD of MS2 coat protein [1]: 10.8 nM
- apparent KD of MS2 coat protein (input ligand: none): 15.2 nM

Sequence: GUCAGCUCGUGAGGAUAUGCACAUGAGGAUCACCCAUGUAAGAUCAAGCUGCUUCGGCAGCAAGUGCAGAAGGUACGAGCUGAC [ENG2/9-C1] (Eterna round: R96, puzzle: Exclusion NG 2)
- apparent KD of MS2 coat protein (input ligand: FMN 200 uM): 200 nM
- apparent KD of MS2 coat protein [1]: 207 nM
- apparent KD of MS2 coat protein (input ligand: none): 297 nM

Sequence: GUCAGGAAUGUAGGAUAUCUGCACGUGUAGUGCAGAGAAGGACAUGAGGAUCACCCAUGUAUAGUAGCUUCGGCUACACCUGAC [ENG1-A3] (Eterna round: R96, puzzle: Exclusion NG 1)
- apparent KD of MS2 coat protein (input ligand: FMN 200 uM): 18 nM
- apparent KD of MS2 coat protein [1]: 9.93 nM
- apparent KD of MS2 coat protein (input ligand: none): 18.1 nM

Sequence: GUCAUACAUGAGGAUCACCCAUGUAAGGAUAUGCUAGCGGUCGGAAGACUGACUGCUAGCAGAAGGUACAUGAU [Mat - Mod of JL D80] (puzzle: Exclusion 1)
- apparent KD of MS2 coat protein [2]: 61.5 nM

Sequence: GUCAUCAAACAUGGGAUAAACAUGAGGAUCACCCAUGUUUACAAGUUUUUUGCUCGUCUUAUAAUAAGUUUGAUGAC [Antenna 8 - Jieux - Sensor, turn-off variant 1] (Eterna round: R97, puzzle: Sensor, turn-off variant 1)
- apparent KD of MS2 coat protein (input ligand: FMN 200 uM): 14 nM
- apparent KD of MS2 coat protein (input ligand: none): 15 nM

Sequence: GUCCGACAUGAGGAUCACCCAUGUGAGGAUAUGCGAUUAGCUGCUAGGUAGUUAGUAUGUAGAAGGCGCAUGAA [EX1 #76] (Eterna round: R97, puzzle: Exclusion 1)
- apparent KD of MS2 coat protein (input ligand: FMN 200 uM): 21.9 nM
- apparent KD of MS2 coat protein (input ligand: none): 24.5 nM

Sequence: GUCGAGUGAGGAUAUGGUGAGUAGUGCCAGAGCGCUGCUCACCAGAAGGCACAUGAGGAUCACCCAUGUAUAGC [Mat - Exclusion 4 - Mod of JL - D13] (puzzle: Exclusion 4)
- apparent KD of MS2 coat protein [2]: 15.2 nM

Sequence: GUCGUGACCAAGGAUAUAGCUAGGGAAGGAAAGUUAGAAGGUGGUACAUGAGGAUCACCCAUGUAGUCCACAAA [Dixeatleve] (puzzle: Exclusion 6)
- apparent KD of MS2 coat protein [3]: 13.1 nM
- apparent KD of MS2 coat protein [2]: 13 nM
- apparent KD of MS2 coat protein [4]: 12.9 nM

Sequence: GUCGUGCGGCUUUGCUGUACGAGUACAUGAGGAUCACCCAUGUAGGAUAUGGCACGCUUUGCGUGCCAGAAGGGCGUGCGUUGG [Excl-NG3-LRO10] (Eterna round: R96, puzzle: Exclusion NG 3)
- apparent KD of MS2 coat protein (input ligand: FMN 200 uM): 35.1 nM
- apparent KD of MS2 coat protein [1]: 21.5 nM
- apparent KD of MS2 coat protein (input ligand: none): 28.4 nM

Sequence: GUCGUGCGGCUUUGCUGUGCGGGUACAUGAGGAUCACCCAUGUAGGAUAUGGUACGCUUUGCGUGCCAGAAGGGCGUGCGUUGG [salish99_ExNG3_r04_008] (Eterna round: R96, puzzle: Exclusion NG 3)
- apparent KD of MS2 coat protein (input ligand: FMN 200 uM): 38.4 nM
- apparent KD of MS2 coat protein [1]: 26.3 nM
- apparent KD of MS2 coat protein (input ligand: none): 36.6 nM

Sequence: GUCGUGUUAGGAUAUGGCGGCGGCGGCGAAAGUUGUUGUUGUUAGAAGGAACAUGAGGAUCACCCAUGUAUGAC [-26 -25.5 kcal, A 24%] (Eterna round: R97, puzzle: Exclusion 4)
- apparent KD of MS2 coat protein (input ligand: FMN 200 uM): 104 nM
- apparent KD of MS2 coat protein (input ligand: none): 35.3 nM

Sequence: GUCUACCAGCUAGGAUAUGCAGUACAGUAAAAUGUAGAAGGAGCACGAUCCAGACAUGAGGAUCACCCAUGUGGGCGGUAGGCA [Vebiena] (Eterna round: R96, puzzle: Exclusion NG 1)
- apparent KD of MS2 coat protein (input ligand: FMN 200 uM): 19.8 nM
- apparent KD of MS2 coat protein [1]: 9.52 nM
- apparent KD of MS2 coat protein (input ligand: none): 17.3 nM

Sequence: GUCUUCAUGACAUGAGGAUCACCCAUGUGUUAUUUGUUAACUAAGGAUAUAUUUUUAAUGUUGAGAUAGAAGGUAGUUUCGGUC [JR_ExcNG3_Sub090] (Eterna round: R96, puzzle: Exclusion NG 3)
- apparent KD of MS2 coat protein (input ligand: FMN 200 uM): 161 nM
- apparent KD of MS2 coat protein [1]: 93 nM
- apparent KD of MS2 coat protein (input ligand: none): 149 nM

Sequence: GUGAGACAUGAGGAUCACCCAUGUCAGGAUAUGAUACUAUGUACUUCGGUACAUAGUAUCAGAAGGGACAGUGA [Ex1-3: 5] (puzzle: Exclusion 1)
- apparent KD of MS2 coat protein [2]: 42.5 nM

Sequence: GUGAUAUAGUUAGUGGCCUACAUGAGGAUCACCCAUGUGAGGGAAAUGUUGAGGCGAAAGUUGUGUGCUCGUCUGUA [JR_SV3TOV1_Sub039] (puzzle: Sensor v3, turn-off variant 1)
- apparent KD of MS2 coat protein [3]: 23.6 nM
- apparent KD of MS2 coat protein [2]: 38.9 nM
- apparent KD of MS2 coat protein [4]: 26.5 nM
